Source: patent US20230302124

Target: T1, simplified alpha-carboxysome shell of CsoS1A and CsoS4A-SII
T1 chain 1: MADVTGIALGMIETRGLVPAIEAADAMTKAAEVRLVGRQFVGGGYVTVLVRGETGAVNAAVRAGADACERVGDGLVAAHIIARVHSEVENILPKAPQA
T1 chain 2: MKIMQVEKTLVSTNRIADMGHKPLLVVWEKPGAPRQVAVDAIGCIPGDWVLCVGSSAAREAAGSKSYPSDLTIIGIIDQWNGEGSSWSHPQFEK

B1: His6-APEX2-S2CP(30) (protein)
chain: HHHHHHMGSSHHHHHHSSGMGKSYPTVSADYQDAVEKAKKKLRGFIAEKRCAPLMLRLAFHSAGTFDKGTKTGGPFGTIKHPAELAHSANNGLDIAVRLLEPLKAEFPILSYADFYQLAGVVAVEVTGGPKVPFHPGREDKPEPPPEGRLPDPTKGSDHLRDVFGKAMGLTDQDIVALSGGHTIGAAHKERSGFEGPWTSNPLIFDNSYFTELLSGEKEGLLQLPSDKALLSDPVFRPLVDKYAADEDAFFADYAEAHQKLSELGFADAGSSKPEKPGSKITGSSGNDTQGSLITYSGGARG
B1 was tested, and the Average enzyme copy number per shell (T = 3) (copies per shell) was 11 and the Average enzyme copy number per shell (T = 4) (copies per shell) was 14.6.
